Molecular target: T1, Utp22 (S. cerevisiae, UniProt P53254 1-1237)
T1 construct: Utp22, yeast, 1,237 residues, amplified from yeast genomic DNA, cloned with no tag; Residues 1-80 and several internal loops are not visible in the crystal; A selenomethionine-labelled form was used for phasing; source: High Five insect cells, recombinant baculovirus, coexpressed with Rrp7, copurified (HisTrap, heparin, Superdex 200)
T1 sequence (looked up): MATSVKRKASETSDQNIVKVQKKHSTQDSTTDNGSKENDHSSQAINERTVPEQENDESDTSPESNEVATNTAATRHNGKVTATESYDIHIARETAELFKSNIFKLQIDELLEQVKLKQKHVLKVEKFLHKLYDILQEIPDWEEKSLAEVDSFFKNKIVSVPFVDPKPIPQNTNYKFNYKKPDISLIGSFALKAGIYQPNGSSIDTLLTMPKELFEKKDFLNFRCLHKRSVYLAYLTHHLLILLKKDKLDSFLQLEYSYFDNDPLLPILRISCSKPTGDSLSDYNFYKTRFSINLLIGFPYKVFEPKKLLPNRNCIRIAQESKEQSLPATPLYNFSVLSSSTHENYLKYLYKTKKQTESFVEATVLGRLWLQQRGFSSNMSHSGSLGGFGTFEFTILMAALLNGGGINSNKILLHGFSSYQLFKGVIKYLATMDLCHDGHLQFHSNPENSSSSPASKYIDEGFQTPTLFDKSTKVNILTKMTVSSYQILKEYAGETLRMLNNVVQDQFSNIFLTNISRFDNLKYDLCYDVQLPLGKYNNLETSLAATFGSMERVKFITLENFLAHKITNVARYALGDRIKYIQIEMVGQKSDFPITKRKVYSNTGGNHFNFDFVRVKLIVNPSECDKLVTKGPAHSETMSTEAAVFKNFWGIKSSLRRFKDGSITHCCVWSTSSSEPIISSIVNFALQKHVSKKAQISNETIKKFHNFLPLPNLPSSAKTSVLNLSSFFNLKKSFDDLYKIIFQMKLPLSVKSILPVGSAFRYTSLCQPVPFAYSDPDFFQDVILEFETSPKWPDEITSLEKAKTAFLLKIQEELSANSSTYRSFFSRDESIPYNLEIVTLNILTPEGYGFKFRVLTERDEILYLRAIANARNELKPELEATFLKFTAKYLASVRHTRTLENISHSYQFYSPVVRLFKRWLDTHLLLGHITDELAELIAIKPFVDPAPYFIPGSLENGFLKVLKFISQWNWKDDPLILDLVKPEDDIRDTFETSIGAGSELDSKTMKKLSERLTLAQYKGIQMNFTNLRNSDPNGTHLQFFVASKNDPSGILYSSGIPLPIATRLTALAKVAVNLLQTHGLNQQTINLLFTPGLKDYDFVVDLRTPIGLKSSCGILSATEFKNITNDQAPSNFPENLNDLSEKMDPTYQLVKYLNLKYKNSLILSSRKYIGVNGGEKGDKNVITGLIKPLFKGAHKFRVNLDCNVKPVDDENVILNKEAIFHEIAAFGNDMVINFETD
Test: crystal structure; Utp22 and Rrp7 coexpressed in insect cells, copurified and cocrystallised; hanging drop, 20°C, 100 mM sodium cacodylate pH 6.2–6.5, 30% PEG 400, 200 mM lithium sulfate; refined to 1.97 Å
Settings: both partners purified

B1: Rrp7 (natural protein, S. cerevisiae, UniProt P25368 1-297, looked up)
chain: MGIEDISAMKNGFIVVPFKLPDHKALPKSQEASLHFMFAKRHQSSNSNESDCLFLVNLPLLSNIEHMKKFVGQLCGKYDTVSHVEELLYNDEFGLHEVDLSALTSDLMSSTDVNEKRYTPRNTALLKFVDAASINNCWNALKKYSNLHAKHPNELFEWTYTTPSFTTFVNFYKPLDIDYLKEDIHTHMAIFEQREAQAQEDVQSSIVDEDGFTLVVGKNTKSLNSIRKKILNKNPLSKHENKAKPISNIDKKAKKDFYRFQVRERKKQEINQLLSKFKEDQERIKVMKAKRKFNPYT
notes: N-terminal His6-tag followed by a PreScission site, cleaved with PreScission protease; source: High Five insect cells, recombinant baculovirus, coexpressed with Utp22, copurified (HisTrap, heparin, Superdex 200); not shown: His6, N-terminal, cleaved
B1: binds.
